# In patent publication US9353390B2, “Genetically engineered microbes and methods for producing 4-hydroxycoumarin” (University of Georgia Research Foundation, Inc., priority 2013, dated 2016):
# “And” between values parts separate entries of the source, which are not always exact repeats. Equal values may be shown once.
# T1: MenF, isochorismate synthase from E. coli MG1655 (purified, N-terminal His tag) (Escherichia coli, UniProt P38051)
# T1 sequence (P38051 1-431): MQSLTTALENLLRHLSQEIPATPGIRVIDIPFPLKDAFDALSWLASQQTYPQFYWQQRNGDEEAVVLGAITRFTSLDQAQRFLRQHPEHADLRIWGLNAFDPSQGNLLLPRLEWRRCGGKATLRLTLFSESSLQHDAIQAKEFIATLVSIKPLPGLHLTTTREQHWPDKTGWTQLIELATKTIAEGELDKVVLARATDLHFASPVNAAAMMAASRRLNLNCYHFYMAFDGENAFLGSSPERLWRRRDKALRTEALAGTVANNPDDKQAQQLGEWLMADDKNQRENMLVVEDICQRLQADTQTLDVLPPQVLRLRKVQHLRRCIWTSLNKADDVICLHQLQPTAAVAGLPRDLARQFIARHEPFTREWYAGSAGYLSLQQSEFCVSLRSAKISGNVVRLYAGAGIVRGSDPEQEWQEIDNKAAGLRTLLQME
# T2: EntC, isochorismate synthase from E. coli MG1655 (purified, N-terminal His tag) (Escherichia coli, UniProt P0AEJ2)
# T2 sequence (P0AEJ2 1-391): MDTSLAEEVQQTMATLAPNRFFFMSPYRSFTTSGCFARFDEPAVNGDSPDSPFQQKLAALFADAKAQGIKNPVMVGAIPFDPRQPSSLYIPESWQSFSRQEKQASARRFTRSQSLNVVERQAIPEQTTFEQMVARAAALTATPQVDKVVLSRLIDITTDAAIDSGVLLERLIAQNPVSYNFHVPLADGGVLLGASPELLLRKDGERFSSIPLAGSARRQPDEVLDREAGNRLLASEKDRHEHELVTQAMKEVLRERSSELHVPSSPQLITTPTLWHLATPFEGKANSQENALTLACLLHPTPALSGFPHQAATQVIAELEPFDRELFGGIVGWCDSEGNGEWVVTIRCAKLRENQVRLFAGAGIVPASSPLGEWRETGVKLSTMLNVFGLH
# B1: BIS3: Biphenyl synthase from Sorbus aucuparia, 4HC-forming enzyme (protein, UniProt D2DRC5 1-388, looked up)
# 4-hydroxycoumarin synthase 2: MAPVVKNEPQHAKILAIGTANPPNVFHQKDYPDFLFRVTKNEHRTDLREKFDRICEKSRTKKRYLHLTEEMLKANPNIYTYGAPSLNVRQDICNIEVPKLGQEASLKAIKEWGQPISKITHLIFCTASCVDMPGCDFQLIKLLGLDPSVTRTMIYEAGCYAGATVLRMAKDFAENNKGARVLVVCAEITTVFFHGLTDTHLDILVGQALFADGASAVIVGANPEPEIERPLFEIVACRQTILPNSEHGVVANIREMGFNYYLSGDVPKFVGGNVVDFMTKTFEKVDGKNKDWNSLFFSVHPGGPAIVDQVEEKLGLKEGKLRATRHVLSEYGNMGAPTVHFILDEMRNKSIEEGKTTTGEGLEWGVVIGIGPGLTVETAVLRSEFITY
# B2: MenF, isochorismate synthase from E. coli MG1655 (purified, N-terminal His tag) (Escherichia coli K-12) (protein)
# chain: T1 sequence (P38051 1-431)
# B3: EntC, isochorismate synthase from E. coli MG1655 (purified, N-terminal His tag) (Escherichia coli K-12) (protein)
# chain: T2 sequence (P0AEJ2 1-391)
# Key:
# [1] = test system: O=C(O)c1ccccc1O; experiment: purified protein, by the assay type; details: other: MdpB2, salicylate, pH 7.5, 30° C., mean ± s.d., n = 2
# Protocol: The Km and Vmax values were estimated with OriginPro8 through non-linear regression of the Michaelis-Menten equation. […] All data points are reported as mean±s.d. from two independent experiments (n=2). Error bars are defined as s.d.
# The obtained transformants were pre-inoculated in Luria-Bertani (LB) medium containing 100 μg/ml of ampicillin and grown aerobically at 37° C. overnight. Next day, the pre-inoculums were transferred into 50 ml of fresh LB medium at a volume ratio of 1:100. The cultures were left to grow at 37° C. till the OD600 values reached 0.6-0.8 and then induced with 1.0 mM IPTG. Protein expression was conducted at 30° C. for another 5 h. […] The BCA kit (Pierce Chemicals) was used to estimate protein concentrations. The SCL enzyme assays were performed according to the method described by Ishiyama et al. with modifications (Ishiyama et al. Appl. Environ. Microbiol. 70, 1297-1306 (2004)).
# [2] = biological target: T1, MenF, isochorismate synthase from E. coli MG1655 (purified, N-terminal His tag); experiment: ICS coupled enzyme assay, MenF (with PaPchB, salicylate accumulation by HPLC); details: chorismic acid, pH 7.5, 30° C., 0.1 μM enzyme, mean ± s.d., n = 2
# Protocol: (§1) Kinetic parameters of EntC (A), MenF (B), and PchA (C). The Km and Vmax were generated with OriginPro8 through non-linear regression of the Michaelis-Menten equation. […] All data points are reported as mean±s.d. from two independent experiments (n=2). Error bars are defined as s.d.
# (§2) The kinetic parameters of the ICSs: EntC, MenF, and PchA were determined using coupled assays (Payne et al. Org. Biomol. Chem. 7, 2421-2429 (2009)). […] The reactions lasted 1 min for EntC, and 5 min for MenF and PchA, respectively, and then were terminated by acidification with 20 μL of HCl (20%). […] The kinetic parameters were estimated by using OriginPro8 through non-linear regression of the Michaelis-Menten equation.
# [3] = biological target: T3, PchA, isochorismate synthase from Pseudomonas aeruginosa PAO1 (purified, N-terminal His tag) (Pseudomonas aeruginosa, UniProt Q51508); assay type: biochemical; details: chorismic acid, pH 7.5, 30° C., mean ± s.d., n = 2
# T3 construct: coupled with PaPchB
# T3 sequence (Q51508 whole entry): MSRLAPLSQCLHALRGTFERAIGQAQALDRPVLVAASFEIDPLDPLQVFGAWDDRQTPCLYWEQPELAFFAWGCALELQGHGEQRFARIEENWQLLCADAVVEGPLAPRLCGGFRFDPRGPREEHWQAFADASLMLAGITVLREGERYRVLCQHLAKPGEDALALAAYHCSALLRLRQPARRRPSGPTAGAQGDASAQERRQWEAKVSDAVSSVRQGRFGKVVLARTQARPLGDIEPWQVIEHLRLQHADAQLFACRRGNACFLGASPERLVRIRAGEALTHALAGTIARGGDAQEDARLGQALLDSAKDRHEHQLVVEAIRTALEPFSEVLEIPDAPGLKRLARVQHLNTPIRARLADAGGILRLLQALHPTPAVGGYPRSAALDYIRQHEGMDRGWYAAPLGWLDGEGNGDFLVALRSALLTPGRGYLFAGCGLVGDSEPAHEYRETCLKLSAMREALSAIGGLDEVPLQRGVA
# Protocol: as §1, §2
# [4] = biological target: T2, EntC, isochorismate synthase from E. coli MG1655 (purified, N-terminal His tag); experiment: ICS coupled enzyme assay, EntC (with PaPchB, salicylate accumulation by HPLC); details: chorismic acid, pH 7.5, 30° C., 0.1 μM enzyme, mean ± s.d., n = 2
# Protocol: as §1, §2
# [5] = test system: conversion of salicylate to 4HC; experiment: In vitro complementation assay, salicylate to 4HC in crude extract of E. coli/pZE-EPBS; details: purified enzyme supplemented into crude extract with required cofactors; crude extract alone 0.18 mg/L/h
# Protocol: The E. coli strain carrying the plasmid pZE-EPBS was pre-inoculated into 3 ml LB liquid medium containing 100 μg/ml of ampicillin and grown at 37° C. overnight with shaking at 300 rpm. In the following day, 1 ml of the preinoculum was added to 50 ml of fresh M9Y medium. The culture was left to grow at 37° C. till the OD600 value reached around 0.6 and then induced with 0.5 mM IPTG. The expression of the pathway enzymes was conducted at 30° C. for another 5 hours. The cells were harvested and re-suspended in 2 ml of Tris-HCl buffer (100 mM, pH=7.5), and then lysed by French Press. The soluble fraction was collected by ultra-centrifugation and used as the crude enzyme extract for the complementation assay. […] After 30 min reaction, 100 μl of malonyl-CoA (2 mM) and 50 μl of crude extract with/without purified BIS3 (20 μl) were supplemented into the reaction system. The reactions were finally terminated in another 0.5-2 h by acidification.
# [6] = substrate: C=C(O[C@@H]1C=C(C(=O)O)C=C[C@H]1O)C(=O)O; experiment: purified protein, by the assay type; details: chorismic acid, pH 7.5, 30° C., mean ± s.d., n = 2
# Protocol: as §1, §2
molecule,measurement,setting,value
"MdpB2, salicylate:CoA ligase from Actinomadura madurae ATCC39144 (purified, N-terminal His tag) (Actinomadura madurae)",Km,[1],8.53 ± 0.94 µM
same,kcat,[1],1.18 ± 0.03 s⁻¹
same,kcat/Km,[1],138000 M⁻¹ s⁻¹
C=C(O[C@@H]1C=C(C(=O)O)C=C[C@H]1O)C(=O)O [chorismic acid],kcat,[2],0.13 S^−1 and 0.13 ± 0.01 S^−1
same,kcat,[3]; 0.1 μM enzyme,0.20 S^−1 and 0.20 ± 0.01 S^−1
same,Km,[3],3.69 ± 0.53 µM
same,kcat,[4],2.12 S^−1 and 2.12 ± 0.07 S^−1
B1,rate of conversion of salicylate to 4HC,[5],7.83 mg/L/h
B2,Km,[6]; other: MenF,6.75 ± 2.99 µM
B3,Km,[6]; other: EntC,11.93 ± 1.37 µM
